# Assay results: FireProtDB (doi:10.1110/ps.03176803)
# B1: Guanyl-specific ribonuclease Sa, P05798 (parent)
# chain: DVSGTVCLSALPPEATDTLNLIASDGPFPYSQDGVVFQNRESVLPTQSYGYYHEYTVITPGARTRGTRRIITGEATQEDYYTGDHYATFSLIDQTC
# Variants of: B1
# Details: Kitasatospora aureofaciens, Thermal, DSC, reversible: yes (90-95%), structure 1RGG, whole UniProt chain shown
# [1] = pH 5.5, 55.6 °C, sodium acetate potassium chloride 0.01 M 0.05 M
# [2] = pH 5.5, sodium acetate potassium chloride 0.01 M 0.05 M
Variant,ddG of mutation (higher = less stable) [1] [kcal/mol],Tm [2] [°C],"change of melting temperature, mutant - wild type (higher = more stable) [2] [°C]",unfolding enthalpy (calorimetric) [2] [kcal/mol],unfolding enthalpy (van 't Hoff) [2] [kcal/mol],"ddG of mutation (higher = less stable) (pH 7, 49 °C, PIPES 0.03 M) [kcal/mol]","Tm (pH 7, PIPES 0.03 M) [°C]","change of melting temperature, mutant - wild type (higher = more stable) (pH 7, PIPES 0.03 M) [°C]","unfolding enthalpy (calorimetric) (pH 7, PIPES 0.03 M) [kcal/mol]","unfolding enthalpy (van 't Hoff) (pH 7, PIPES 0.03 M) [kcal/mol]","Tm (pH 7, PIPES 0.3 M) [°C]","change of melting temperature, mutant - wild type (higher = more stable) (pH 7, PIPES 0.3 M) [°C]","unfolding enthalpy (calorimetric) (pH 7, PIPES 0.3 M) [kcal/mol]","unfolding enthalpy (van 't Hoff) (pH 7, PIPES 0.3 M) [kcal/mol]"
R65A,1.3,51.1,-4.5,81,78,1,45.6,-3.4,81,90,–,–,–,–
E41K,1.5,50.5,-5.1,97,101,0.7,46.5,-2.5,90,100,–,–,–,–
H85Q,0,55.5,-0.1,94,105,0,49.1,0.1,90,89,–,–,–,–
E74K,-0.1,56,0.4,103,99,-0.9,–,–,–,–,52.1,3.1,101,113
E54Q,2.3,–,–,–,–,1.7,43.1,-5.9,81,87,–,–,–,–
Q38A,-0.4,–,–,–,–,-1,52.5,3.5,109,110,–,–,–,–
